Results from patent US20260008852A1 (CRYSTAL BIOSCIENCE, published 2026).
Where a chain is given by its changes, count along the chain named.

B1: 40633p1.2.E11 (scFv, V domains shown)
VH: EVQLLESGGGLVQPGGSLRLSCAASGFSFSNYDMSWVRQAPGKGLEWVAGIRSGSRTYYADSVKGRFTISRDNSKNTLYLQMNSLRAEDTATYYCGRYFNMDVWGQGTTVTVSS
VL: QSVLTQPPSASGTPGQRVTISCSGSTFNIGTNLVHWYQQLPGTAPKLLIYLTDRRPPGVPDRFSGSKSGTSASLAISGLQSEDEANYYCATWDDSLNSFLFGGGTKLTVL
notes: Tested as scFv-Fc (Expi293 supernatant)
B2: 40633p1.2.A10 (scFv, V domains shown)
VH: EVQLLESGGGLVQPGGSLRLSCAASGFTVSYYGMSWVRQAPGKGLEWVSVIKQDGSEEYYADSVKGRFTISRDNSKNTLYLQMNSLRAEDTAVYYCARHWNDYSNGMNVWGQGTTVTVSS
VL: QSVLTQPPSASGTPGQRVTISCSGSTSNVGDRYVYWYQQLPGTAPKLLIYLDDQRPSGVPDRFSGSKSGTSASLAISGLQSEDEADYYCASWDASLNGWVFGGGTKLTVL
notes: as for B1
B3: 40633p1.1.A7 (scFv, V domains shown)
VH: B2 VH with V50A, E58K, G106A
VL: B2 VL with V29I, D31R, R32E, Y33S, L51T, D52I, D86V
notes: as for B1
B4: 40633p1.1.G11 (scFv, V domains shown)
VH: B2 VH with L86P
VL: B2 VL
notes: as for B1
B5: 40633p1.2.C3 (scFv, V domains shown)
VH: B2 VH with V50A, E58K, G106A, G111E
VL: B2 VL with T26N, D31G, R32N, Y35S, L51R, D52N, D53S, D86V
notes: as for B1
B6: 40633p1.2.E1 (scFv, V domains shown)
VH: B2 VH with G9R
VL: B2 VL
notes: as for B1
B7: 40633p1.2.F3 (scFv, V domains shown)
VH: B2 VH
VL: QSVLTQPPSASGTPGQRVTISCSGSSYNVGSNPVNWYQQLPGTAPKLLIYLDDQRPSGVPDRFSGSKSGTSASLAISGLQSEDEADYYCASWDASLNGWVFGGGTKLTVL
notes: as for B1
B8: 40633p1.2.A8 (scFv, V domains shown)
VH: EVQLLESGGGLLQPGGSLRLSCAASGFSFSSYGMHWVRQAPGKGLEWVAAINSDGSRIYYADSVKGRFTISRDNSKNTLYLQMNSLRAEDTAVYYCTKYYYHYAMDVWGQGTTVTVSS
VL: QSVLTQPPSASGTPGQRVTISCSGSRSDIGATTVNWYQQLPGTAPKLLIYQSHLRPSGVPDRFSGSKSGTSASLAISGLQSEDEADYYCASWDASLNTWVFGGGTKLTVL
notes: as for B1
B9: 40633p1.1.B12 (scFv, V domains shown)
VH: B8 VH
VL: B8 VL with I49T
notes: as for B1
B10: 40633p1.2.G9 (scFv, V domains shown)
VH: B8 VH with K65E
VL: B8 VL
notes: as for B1
B11: 40633p1.1.B3 (scFv, V domains shown)
VH: B2 VH with V50A, E58K, G106A
VL: B2 VL with V29I, D31R, R32E, Y33S, L51T, D52I, A90G, S91T, A94D, G98A
notes: as for B1
B12: 40633p1.1.E4 (scFv, V domains shown)
VH: EVQLLESGGGLVQPGGSLRLSCAASGFTFSSYWMSWVRQAPGKGLEWVSGISSSGSATYYADSVKGRFTISRDNSKNTLYLQMNSLRAEDTAVYYCARWNDYDIMDVWGQGTTVTVSS
VL: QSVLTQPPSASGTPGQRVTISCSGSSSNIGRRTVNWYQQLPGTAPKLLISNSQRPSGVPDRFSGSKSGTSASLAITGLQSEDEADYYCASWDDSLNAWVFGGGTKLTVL
notes: as for B1
B13: 40633p1.1.C11 (scFv, V domains shown)
VH: B12 VH with S49A, S52N, S53R, S54N, S56G, A57T
VL: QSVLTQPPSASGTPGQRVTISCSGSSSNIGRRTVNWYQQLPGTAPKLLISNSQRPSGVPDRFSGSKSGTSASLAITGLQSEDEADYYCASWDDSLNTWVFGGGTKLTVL
notes: as for B1
B14: 40633p1.2.D7 (scFv, V domains shown)
VH: B12 VH with G10S
VL: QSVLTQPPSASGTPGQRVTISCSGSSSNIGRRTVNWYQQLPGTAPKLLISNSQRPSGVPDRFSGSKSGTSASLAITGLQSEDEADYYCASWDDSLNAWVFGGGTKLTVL
notes: as for B1
B15: 40633p1.1.D11 (scFv, V domains shown)
VH: EVQLLESGGGLVQPGGSLRLSCAASGFTFRSYAMSWVRQAPGKGLEWVAYIGSSGGTTYYADSVKGRFTISRDNSKNTLYLQMNSLRAEDTAVYYCVKESYYYMDVWGQGTTVTVSS
VL: QSVLTQPPSASGTPGQRVTISCSATISNIDINRVSWYQQLPGTAPKLLIFNSQRPSGVPDRFSGSKSGTSASLAISGLQSEDEADYYCATWDDSLNSWVFGGGTKLTVL
notes: as for B1
B16: 40633p1.1.E3 (scFv, V domains shown)
VH: B2 VH with V50A, E58K, G106A
VL: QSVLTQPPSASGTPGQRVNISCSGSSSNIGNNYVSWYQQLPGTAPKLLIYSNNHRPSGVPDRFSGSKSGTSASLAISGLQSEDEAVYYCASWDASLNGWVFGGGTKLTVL
notes: as for B1

Biological target: T1, His-tagged cynomolgus monkey B7-H3 (cynomolgus monkey)
T1 chain: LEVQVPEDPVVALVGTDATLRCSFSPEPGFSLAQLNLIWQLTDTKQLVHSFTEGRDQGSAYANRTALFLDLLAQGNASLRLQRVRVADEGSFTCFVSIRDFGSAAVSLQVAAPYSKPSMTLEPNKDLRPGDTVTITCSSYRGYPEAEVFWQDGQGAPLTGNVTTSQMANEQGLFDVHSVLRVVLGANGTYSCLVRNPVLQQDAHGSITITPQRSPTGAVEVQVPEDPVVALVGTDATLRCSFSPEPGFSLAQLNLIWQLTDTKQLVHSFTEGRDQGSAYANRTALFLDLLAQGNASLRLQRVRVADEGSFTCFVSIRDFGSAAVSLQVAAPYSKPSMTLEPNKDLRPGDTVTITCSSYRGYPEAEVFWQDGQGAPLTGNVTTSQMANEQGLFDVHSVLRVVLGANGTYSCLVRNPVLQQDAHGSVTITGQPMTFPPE
Experiment: ELISA, coated His-tagged antigen, scFv-Fc 1 ug/ml
Description: (§1) The variable regions of heavy and light chains were cloned and assembled into a single chain Fv-Fc (ScFv-Fc) mammalian expression vector. Sanger sequencing was performed by GeneWiz and sequences were evaluated using DNASTAR Lasergene 15. Unique scFv-Fes were transiently expressed in Expi293 cells (Life Technologies, #A14527) grown in Expi293 Expression Medium (Life Technologies, #A1435101) after transfection using the ExpiFectamine transfection reagent and supplements (Life Technologies, #A14524). Cells were incubated for 3-5 days with shaking at 37° C. in a 5% CO2 humidified incubator.

| Binder | ELISA OD450 @ 1 ug/ml |
| --- | --- |
| B1 | 2.14 OD450 |
| B2 | 2.14 OD450 |
| B3 | 1.7 OD450 |
| B4 | 1.72 OD450 |
| B5 | 2.01 OD450 |
| B6 | 1.95 OD450 |
| B7 | 2.04 OD450 |
| B8 | 2.16 OD450 |
| B9 | 1.72 OD450 |
| B10 | 2.41 OD450 |
| B11 | 1.89 OD450 |
| B12 | 1.86 OD450 |
| B13 | 1.65 OD450 |
| B14 | 1.92 OD450 |
| B15 | 1.91 OD450 |
| B16 | 1.63 OD450 |

Each binder was assayed against T2, His-tagged human B7-H3 (human, UniProt Q5ZPR3-2 29-245, limits assumed) (assay: ELISA, coated His-tagged antigen, scFv-Fc 1 ug/ml).
T2 construct: Bought His-tagged protein coated on the ELISA plate; also called hu B7-H3; CD276
T2 sequence (looked up): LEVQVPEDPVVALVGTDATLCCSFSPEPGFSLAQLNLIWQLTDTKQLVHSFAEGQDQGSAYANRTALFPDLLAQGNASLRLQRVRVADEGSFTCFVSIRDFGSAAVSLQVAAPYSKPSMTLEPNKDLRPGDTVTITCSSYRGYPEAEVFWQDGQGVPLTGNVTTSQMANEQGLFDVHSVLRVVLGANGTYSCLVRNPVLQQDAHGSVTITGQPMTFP
Description: as §1

| Binder | ELISA OD450 @ 1 ug/ml |
| --- | --- |
| B1 | 2.09 OD450 |
| B2 | 2.14 OD450 |
| B3 | 1.95 OD450 |
| B4 | 2.05 OD450 |
| B5 | 1.78 OD450 |
| B6 | 1.9 OD450 |
| B7 | 1.96 OD450 |
| B8 | 2.17 OD450 |
| B9 | 1.83 OD450 |
| B10 | 2.08 OD450 |
| B11 | 2.04 OD450 |
| B12 | 1.95 OD450 |
| B13 | 2.09 OD450 |
| B14 | 2.19 OD450 |
| B15 | 1.72 OD450 |
| B16 | 0.554 OD450 |

What follows are binders tested against T3, His-tagged mouse B7-H3 (mouse, UniProt Q8VE98 29-244, limits assumed) (assay: ELISA, coated His-tagged antigen, scFv-Fc 1 ug/ml).
T3 construct: Bought His-tagged protein coated on the ELISA plate; also called mu B7-H3; murine B7-H3
T3 sequence (looked up): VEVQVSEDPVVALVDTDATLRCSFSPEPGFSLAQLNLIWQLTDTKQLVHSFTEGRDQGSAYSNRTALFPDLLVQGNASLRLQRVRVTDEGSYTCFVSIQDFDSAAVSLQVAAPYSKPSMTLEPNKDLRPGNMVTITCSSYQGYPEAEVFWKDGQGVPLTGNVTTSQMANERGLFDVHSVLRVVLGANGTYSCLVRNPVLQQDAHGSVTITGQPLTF
Description: as §1

| Binder | ELISA OD450 @ 1 ug/ml |
| --- | --- |
| B1 | 1.4 OD450 |
| B2 | 2.02 OD450 |
| B3 | 1.97 OD450 |
| B4 | 1.83 OD450 |
| B5 | 0.886 OD450 |
| B6 | 1.98 OD450 |
| B7 | 1.91 OD450 |
| B8 | 1.95 OD450 |
| B9 | 1.75 OD450 |
| B10 | 1.85 OD450 |
| B11 | 1.83 OD450 |
| B12 | 1.51 OD450 |
| B13 | 1.85 OD450 |
| B14 | 1.51 OD450 |
| B15 | 1.45 OD450 |
| B16 | 0.184 OD450 |

Each binder was assayed against T2, His-tagged human B7-H3 (assay: ELISA OD450 on hu B7-H3 over OD450 on mu B7-H3).
Description: as §1

| Binder | hu:mu ratio |
| --- | --- |
| B1 | 1.5 |
| B2 | 1.06 |
| B3 | 0.991 |
| B4 | 1.12 |
| B5 | 2.01 |
| B6 | 0.961 |
| B7 | 1.03 |
| B8 | 1.11 |
| B9 | 1.04 |
| B10 | 1.13 |
| B11 | 1.11 |
| B12 | 1.29 |
| B13 | 1.13 |
| B14 | 1.45 |
| B15 | 1.18 |
| B16 | 3.01 |

What follows are binders tested against T4, B7-H3 on B7-H3-expressing CHO cells (Genescript) (UniProt Q5ZPR3 29-534, limits assumed) (assay: flow cytometry, B7-H3-expressing CHO cells, 10 ug/ml).
T4 construct: whole, on cells; also called CHO-K1/B7-H3; MFI B7-H3
T4 sequence (looked up): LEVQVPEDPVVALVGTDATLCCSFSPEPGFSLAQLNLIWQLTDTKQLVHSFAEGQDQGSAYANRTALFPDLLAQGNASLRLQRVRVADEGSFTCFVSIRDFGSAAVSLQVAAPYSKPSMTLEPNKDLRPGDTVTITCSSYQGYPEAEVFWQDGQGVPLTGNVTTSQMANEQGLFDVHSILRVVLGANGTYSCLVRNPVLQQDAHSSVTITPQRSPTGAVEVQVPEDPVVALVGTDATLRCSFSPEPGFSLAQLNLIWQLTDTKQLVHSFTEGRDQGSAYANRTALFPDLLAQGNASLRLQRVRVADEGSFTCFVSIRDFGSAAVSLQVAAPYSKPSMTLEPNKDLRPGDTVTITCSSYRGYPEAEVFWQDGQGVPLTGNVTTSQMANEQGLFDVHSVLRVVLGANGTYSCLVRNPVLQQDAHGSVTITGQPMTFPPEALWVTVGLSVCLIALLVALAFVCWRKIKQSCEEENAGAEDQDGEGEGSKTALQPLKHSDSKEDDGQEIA
Description: Binding of anti-B7-H3 antibodies to cell lines was assessed by flow cytometry. Briefly, approximately 1.5 e5 B7-H3-expressing CHO cells (Genescript) or parent CHO cells (ATCC) were resuspended in FACS buffer (PBS/1% BSA/0.01% NaN3) containing 10 μg/ml of anti-B7-H3 antibodies and incubated for 60 min on ice. […] Cells were then washed twice, resuspended in FACS buffer, and read on an Attune Flow Cytometer (Life Technologies). Data are expressed as Mean Fluorescent Intensities (MFI).

| Binder | MFI @ 10 ug/ml |
| --- | --- |
| B1 | 81300 MFI |
| B2 | 63500 MFI |
| B3 | 76400 MFI |
| B4 | 75900 MFI |
| B5 | 53100 MFI |
| B6 | 64700 MFI |
| B7 | 68800 MFI |
| B8 | 62200 MFI |
| B9 | 65400 MFI |
| B10 | 67600 MFI |
| B11 | 74700 MFI |
| B12 | 80000 MFI |
| B13 | 81100 MFI |
| B14 | 75100 MFI |
| B15 | 78600 MFI |
| B16 | 44000 MFI |
